In the supplement of paper PMC10567573:

B1: ZNF24 (parent)
chain: YGETCFPKGRFERKRNPSRKKQHI

Variants of: B1
Experiment: protein stability index of a GFP-peptide fusion (GPS, HEK-293T) (PSI 1-6); higher = more stable
Settings: c terminus: a fixed tail appended
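Also: lentivirally expressed fusions sorted by FACS into six bins by GFP to DsRed ratio, PSI derived from sequencing read proportions per bin multiplied by bin number.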

Variant	protein stability index
YGETNFPKGRFERKRNPSRKKQHI [C5N]	2.43
YGETPFPKGRFERKRNPSRKKQHI [C5P]	3.61
YGETQFPKGRFERKRNPSRKKQHI [C5Q]	3.15
YGETRFPKGRFERKRNPSRKKQHI [C5R]	3.29
YGETSFPKGRFERKRNPSRKKQHI [C5S]	3.7
YGETTFPKGRFERKRNPSRKKQHI [C5T]	2.47
YGETVFPKGRFERKRNPSRKKQHI [C5V]	3.17
YGETWFPKGRFERKRNPSRKKQHI [C5W]	2.53
YGETYFPKGRFERKRNPSRKKQHI [C5Y]	1.95
YGETCAPKGRFERKRNPSRKKQHI [F6A]	3.64
YGETCCPKGRFERKRNPSRKKQHI [F6C]	3.87
YGETCDPKGRFERKRNPSRKKQHI [F6D]	4.46
YGETCEPKGRFERKRNPSRKKQHI [F6E]	4.51
YGETCGPKGRFERKRNPSRKKQHI [F6G]	3.8
YGETCHPKGRFERKRNPSRKKQHI [F6H]	4.08
YGETCIPKGRFERKRNPSRKKQHI [F6I]	3.61
YGETCKPKGRFERKRNPSRKKQHI [F6K]	3.38
YGETCLPKGRFERKRNPSRKKQHI [F6L]	3.79
YGETCMPKGRFERKRNPSRKKQHI [F6M]	4.07
YGETCNPKGRFERKRNPSRKKQHI [F6N]	4.03
YGETCPPKGRFERKRNPSRKKQHI [F6P]	4.35
YGETCQPKGRFERKRNPSRKKQHI [F6Q]	4.02
YGETCRPKGRFERKRNPSRKKQHI [F6R]	3.7
YGETCSPKGRFERKRNPSRKKQHI [F6S]	3.73

Variant	protein stability index
YGETCTPKGRFERKRNPSRKKQHI [F6T]	4.36
YGETCVPKGRFERKRNPSRKKQHI [F6V]	3.82
YGETCWPKGRFERKRNPSRKKQHI [F6W]	1.77
YGETCYPKGRFERKRNPSRKKQHI [F6Y]	4.74
YGETCFAKGRFERKRNPSRKKQHI [P7A]	2.77
YGETCFCKGRFERKRNPSRKKQHI [P7C]	2.81
YGETCFDKGRFERKRNPSRKKQHI [P7D]	3.5
YGETCFEKGRFERKRNPSRKKQHI [P7E]	3.63
YGETCFGKGRFERKRNPSRKKQHI [P7G]	2.82
YGETCFHKGRFERKRNPSRKKQHI [P7H]	2.43
YGETCFIKGRFERKRNPSRKKQHI [P7I]	2.5
YGETCFKKGRFERKRNPSRKKQHI [P7K]	3.35
YGETCFLKGRFERKRNPSRKKQHI [P7L]	1.9
YGETCFMKGRFERKRNPSRKKQHI [P7M]	3.07
YGETCFNKGRFERKRNPSRKKQHI [P7N]	3.69
YGETCFQKGRFERKRNPSRKKQHI [P7Q]	2.26
YGETCFRKGRFERKRNPSRKKQHI [P7R]	2.93
YGETCFSKGRFERKRNPSRKKQHI [P7S]	2.28
YGETCFTKGRFERKRNPSRKKQHI [P7T]	3.02
YGETCFVKGRFERKRNPSRKKQHI [P7V]	3.12
YGETCFWKGRFERKRNPSRKKQHI [P7W]	2.57
YGETCFYKGRFERKRNPSRKKQHI [P7Y]	1.76
YGETCFPAGRFERKRNPSRKKQHI [K8A]	2.17
YGETCFPCGRFERKRNPSRKKQHI [K8C]	1.68

Variant	protein stability index
YGETCFPDGRFERKRNPSRKKQHI [K8D]	3.56
YGETCFPEGRFERKRNPSRKKQHI [K8E]	2.96
YGETCFPGGRFERKRNPSRKKQHI [K8G]	2.93
YGETCFPHGRFERKRNPSRKKQHI [K8H]	2.1
YGETCFPIGRFERKRNPSRKKQHI [K8I]	2.49
YGETCFPLGRFERKRNPSRKKQHI [K8L]	2.07
YGETCFPNGRFERKRNPSRKKQHI [K8N]	1.93
YGETCFPPGRFERKRNPSRKKQHI [K8P]	2.11
YGETCFPQGRFERKRNPSRKKQHI [K8Q]	2.13
YGETCFPRGRFERKRNPSRKKQHI [K8R]	2.88
YGETCFPSGRFERKRNPSRKKQHI [K8S]	2.42
YGETCFPTGRFERKRNPSRKKQHI [K8T]	2.49
YGETCFPVGRFERKRNPSRKKQHI [K8V]	2.36
YGETCFPYGRFERKRNPSRKKQHI [K8Y]	2.74
YGETCFPKARFERKRNPSRKKQHI [G9A]	2.11
YGETCFPKCRFERKRNPSRKKQHI [G9C]	1.98
YGETCFPKDRFERKRNPSRKKQHI [G9D]	2.71
YGETCFPKERFERKRNPSRKKQHI [G9E]	3.39
YGETCFPKFRFERKRNPSRKKQHI [G9F]	2.29
YGETCFPKHRFERKRNPSRKKQHI [G9H]	2.72
YGETCFPKIRFERKRNPSRKKQHI [G9I]	1.94
YGETCFPKKRFERKRNPSRKKQHI [G9K]	3.15
YGETCFPKLRFERKRNPSRKKQHI [G9L]	2.12
YGETCFPKMRFERKRNPSRKKQHI [G9M]	2.18

Variant	protein stability index
YGETCFPKNRFERKRNPSRKKQHI [G9N]	3.06
YGETCFPKPRFERKRNPSRKKQHI [G9P]	2.41
YGETCFPKQRFERKRNPSRKKQHI [G9Q]	3.28
YGETCFPKRRFERKRNPSRKKQHI [G9R]	2.85
YGETCFPKSRFERKRNPSRKKQHI [G9S]	3
YGETCFPKTRFERKRNPSRKKQHI [G9T]	2.7
YGETCFPKVRFERKRNPSRKKQHI [G9V]	1.72
YGETCFPKWRFERKRNPSRKKQHI [G9W]	2.15
YGETCFPKYRFERKRNPSRKKQHI [G9Y]	3.75
YGETCFPKGAFERKRNPSRKKQHI [R10A]	2.6
YGETCFPKGCFERKRNPSRKKQHI [R10C]	2.66
YGETCFPKGDFERKRNPSRKKQHI [R10D]	3.66
YGETCFPKGEFERKRNPSRKKQHI [R10E]	3.07
YGETCFPKGFFERKRNPSRKKQHI [R10F]	2.83
YGETCFPKGGFERKRNPSRKKQHI [R10G]	3.44
YGETCFPKGHFERKRNPSRKKQHI [R10H]	2.55
YGETCFPKGIFERKRNPSRKKQHI [R10I]	2.92
YGETCFPKGKFERKRNPSRKKQHI [R10K]	2.71
YGETCFPKGLFERKRNPSRKKQHI [R10L]	2.67
YGETCFPKGMFERKRNPSRKKQHI [R10M]	2.9
YGETCFPKGNFERKRNPSRKKQHI [R10N]	2.93
YGETCFPKGPFERKRNPSRKKQHI [R10P]	2.56
YGETCFPKGQFERKRNPSRKKQHI [R10Q]	3.38
YGETCFPKGSFERKRNPSRKKQHI [R10S]	2.82

Variant	protein stability index
YGETCFPKGTFERKRNPSRKKQHI [R10T]	3.23
YGETCFPKGVFERKRNPSRKKQHI [R10V]	2.24
YGETCFPKGWFERKRNPSRKKQHI [R10W]	1.71
YGETCFPKGYFERKRNPSRKKQHI [R10Y]	2.72
YGETCFPKGRAERKRNPSRKKQHI [F11A]	3.43
YGETCFPKGRCERKRNPSRKKQHI [F11C]	2.58
YGETCFPKGRDERKRNPSRKKQHI [F11D]	2.99
YGETCFPKGREERKRNPSRKKQHI [F11E]	3.16
YGETCFPKGRGERKRNPSRKKQHI [F11G]	3.32
YGETCFPKGRHERKRNPSRKKQHI [F11H]	3.05
YGETCFPKGRIERKRNPSRKKQHI [F11I]	2.59
YGETCFPKGRKERKRNPSRKKQHI [F11K]	3.13
YGETCFPKGRLERKRNPSRKKQHI [F11L]	2.35
YGETCFPKGRMERKRNPSRKKQHI [F11M]	2.55
YGETCFPKGRNERKRNPSRKKQHI [F11N]	3.33
YGETCFPKGRPERKRNPSRKKQHI [F11P]	2.97
YGETCFPKGRQERKRNPSRKKQHI [F11Q]	3.41
YGETCFPKGRSERKRNPSRKKQHI [F11S]	3.18
YGETCFPKGRTERKRNPSRKKQHI [F11T]	3.28
YGETCFPKGRVERKRNPSRKKQHI [F11V]	2.59
YGETCFPKGRWERKRNPSRKKQHI [F11W]	2.2
YGETCFPKGRYERKRNPSRKKQHI [F11Y]	3.32
YGETCFPKGRFARKRNPSRKKQHI [E12A]	2.49
YGETCFPKGRFCRKRNPSRKKQHI [E12C]	2.8

Variant	protein stability index
YGETCFPKGRFDRKRNPSRKKQHI [E12D]	3.26
YGETCFPKGRFFRKRNPSRKKQHI [E12F]	2
YGETCFPKGRFGRKRNPSRKKQHI [E12G]	3.16
YGETCFPKGRFHRKRNPSRKKQHI [E12H]	3.09
YGETCFPKGRFIRKRNPSRKKQHI [E12I]	2.34
YGETCFPKGRFKRKRNPSRKKQHI [E12K]	2.91
YGETCFPKGRFLRKRNPSRKKQHI [E12L]	3.59
YGETCFPKGRFMRKRNPSRKKQHI [E12M]	1.87
YGETCFPKGRFNRKRNPSRKKQHI [E12N]	3.1
YGETCFPKGRFPRKRNPSRKKQHI [E12P]	3.11
YGETCFPKGRFQRKRNPSRKKQHI [E12Q]	2.3
YGETCFPKGRFRRKRNPSRKKQHI [E12R]	3.88
YGETCFPKGRFSRKRNPSRKKQHI [E12S]	2.85
YGETCFPKGRFTRKRNPSRKKQHI [E12T]	3.16
YGETCFPKGRFVRKRNPSRKKQHI [E12V]	2.16
YGETCFPKGRFWRKRNPSRKKQHI [E12W]	2.3
YGETCFPKGRFYRKRNPSRKKQHI [E12Y]	2.46
YGETCFPKGRFEAKRNPSRKKQHI [R13A]	2.96
YGETCFPKGRFECKRNPSRKKQHI [R13C]	2.33
YGETCFPKGRFEDKRNPSRKKQHI [R13D]	2.93
YGETCFPKGRFEEKRNPSRKKQHI [R13E]	3.1
YGETCFPKGRFEFKRNPSRKKQHI [R13F]	2.43
YGETCFPKGRFEGKRNPSRKKQHI [R13G]	2.22
YGETCFPKGRFEHKRNPSRKKQHI [R13H]	3.21

Variant	protein stability index
YGETCFPKGRFEIKRNPSRKKQHI [R13I]	2.32
YGETCFPKGRFEKKRNPSRKKQHI [R13K]	2.9
YGETCFPKGRFELKRNPSRKKQHI [R13L]	2.58
YGETCFPKGRFEMKRNPSRKKQHI [R13M]	2.15
YGETCFPKGRFENKRNPSRKKQHI [R13N]	2.87
YGETCFPKGRFEPKRNPSRKKQHI [R13P]	3
YGETCFPKGRFEQKRNPSRKKQHI [R13Q]	2.61
YGETCFPKGRFESKRNPSRKKQHI [R13S]	3.14
YGETCFPKGRFETKRNPSRKKQHI [R13T]	2.3
YGETCFPKGRFEVKRNPSRKKQHI [R13V]	2.19
YGETCFPKGRFEWKRNPSRKKQHI [R13W]	1.75
YGETCFPKGRFEYKRNPSRKKQHI [R13Y]	2.25
YGETCFPKGRFERARNPSRKKQHI [K14A]	3.21
YGETCFPKGRFERCRNPSRKKQHI [K14C]	2.41
YGETCFPKGRFERDRNPSRKKQHI [K14D]	3.63
YGETCFPKGRFERERNPSRKKQHI [K14E]	3.65
YGETCFPKGRFERFRNPSRKKQHI [K14F]	2.55
YGETCFPKGRFERGRNPSRKKQHI [K14G]	2.92
YGETCFPKGRFERHRNPSRKKQHI [K14H]	2.51
YGETCFPKGRFERIRNPSRKKQHI [K14I]	2.96
YGETCFPKGRFERLRNPSRKKQHI [K14L]	2.82
YGETCFPKGRFERMRNPSRKKQHI [K14M]	2.7
YGETCFPKGRFERNRNPSRKKQHI [K14N]	3.48
YGETCFPKGRFERPRNPSRKKQHI [K14P]	3.18

Variant	protein stability index
YGETCFPKGRFERQRNPSRKKQHI [K14Q]	3.1
YGETCFPKGRFERRRNPSRKKQHI [K14R]	2.8
YGETCFPKGRFERSRNPSRKKQHI [K14S]	2.65
YGETCFPKGRFERTRNPSRKKQHI [K14T]	2.27
YGETCFPKGRFERVRNPSRKKQHI [K14V]	2.42
YGETCFPKGRFERWRNPSRKKQHI [K14W]	2.34
YGETCFPKGRFERYRNPSRKKQHI [K14Y]	2.89
YGETCFPKGRFERKANPSRKKQHI [R15A]	2.76
YGETCFPKGRFERKCNPSRKKQHI [R15C]	2.65
YGETCFPKGRFERKDNPSRKKQHI [R15D]	3.17
YGETCFPKGRFERKENPSRKKQHI [R15E]	2.93
YGETCFPKGRFERKFNPSRKKQHI [R15F]	2.83
YGETCFPKGRFERKGNPSRKKQHI [R15G]	2.75
YGETCFPKGRFERKHNPSRKKQHI [R15H]	2.84
YGETCFPKGRFERKINPSRKKQHI [R15I]	2.28
YGETCFPKGRFERKKNPSRKKQHI [R15K]	2.03
YGETCFPKGRFERKLNPSRKKQHI [R15L]	2.76
YGETCFPKGRFERKMNPSRKKQHI [R15M]	3.17
YGETCFPKGRFERKNNPSRKKQHI [R15N]	3.2
YGETCFPKGRFERKPNPSRKKQHI [R15P]	3.15
